± gives the uncertainty stated by the source.
test: amyloid nucleation score (Sup35N fusion, yeast selection) (log enrichment); library NNK2; higher = more nucleation; inactive = no reads after selection
In short: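 Growth for 7 days at 30°C on medium lacking adenine and uracil followed a 24-hour induction with 100 μM copper sulfate of psi-negative yeast expressing peptides of 20 random codons fused to Sup35N. Input and output plasmid inserts were sequenced with Illumina, and sequences with under 100 input reads were excluded. Nucleation score is the DiMSum log enrichment of output over input reads, centred on the mode score of non-aggregating sequences.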

IGTADDKVSNRQGEPTEMA and IGVRPCTMRC are within error of each other in amyloid nucleation score: 0.681 ± 0.55 for the first, 0.23 ± 0.29 for the second.

Going from IGVSLTYKIQVSTRLFSTLY to IGWGYRWVRWL, the amyloid nucleation score falls from 3.29 ± 0.15 to -0.415 ± 0.5.

IHIWGSLSIDIEFVCGRQAK and IHNWIDSVERTALDMWERNA are within error of each other in amyloid nucleation score: 1.99 ± 0.27 for the first, 1.98 ± 0.14 for the second.

First: IIACLTVNYCTGRCATLMFP
Second: IIAEFDSGWSEAFDSCLGMS
The amyloid nucleation score of the first is higher: 6.365 ± 0.036 for the first, -0.114 ± 0.54 for the second.

IIEIEGVCAFDWLRIFLILI and IIFVFREYAINMKGVFK are within error of each other in amyloid nucleation score: -1.27 ± 0.47 for the first, 0.082 ± 1 for the second.

First: IIHDLSSFRKCSLHPDIGSS
Second: IIISYMFKHSWIKKGRHKLV
The amyloid nucleation score of the first is lower: -0.373 ± 0.37 for the first, 0.597 ± 0.5 for the second.

Going from IILFEYCEF to IIQISSYSALWFRW, the amyloid nucleation score rises from -0.613 ± 1.1 to 0.724 ± 0.14.

IIQRRK and IIVIRD are within error of each other in amyloid nucleation score: -0.157 ± 0.27 for the first, 0.005 ± 0.36 for the second.

Going from IIVYVDDSPLYAVSRLQSYC to IKFTLHCYDCVVFNC, the amyloid nucleation score rises from 0.758 ± 0.13 to 6.937 ± 0.056.

IKHVEDASGKRTDSRLFTRD and IKISYTLMASEAVNTFS are within error of each other in amyloid nucleation score: -0.545 ± 0.54 for the first, -1.22 ± 1.1 for the second.

IKTVIRCLDLVSFHRYGIGV and IKYFY are within error of each other in amyloid nucleation score: -0.401 ± 0.31 for the first, -0.939 ± 0.49 for the second.

IKYRFGGLGPRPPNGRRFE and IKYSVVNRHRVGLSVTAKW are within error of each other in amyloid nucleation score: 0.635 ± 0.65 for the first, -0.205 ± 0.37 for the second.

First: IKYYVTVWSLESDTAWVGGL
Second: ILDFKWNYYG
The amyloid nucleation score of the first is lower: 0.196 ± 0.45 for the first, 3.05 ± 0.11 for the second.

First: ILFCLF
Second: ILISLESSPISGMKCVLQRF
The amyloid nucleation score of the first is higher: 8.143 ± 0.033 for the first, 2.85 ± 0.12 for the second.

First: ILKIAARIYLGLWTVFDWCG
Second: ILKRMLRCIYNFNISVWIIR
The amyloid nucleation score of the first is higher: 0.523 ± 0.27 for the first, -0.578 ± 0.31 for the second.

Compared with ILKSKVSGPIYVSE, ILLCCPVLFPINMKGSVCDK is higher in amyloid nucleation score: 0.848 ± 0.23 for the first, 8.463 ± 0.044 for the second.

Compared with ILLYRNAYWYPGKSSICLTS, ILQGADLKLVYFVNHRMERV is higher in amyloid nucleation score: -1.06 ± 0.49 for the first, 1.24 ± 0.21 for the second.

Compared with ILQWEVSWLCKNHT, ILSLRNR is lower in amyloid nucleation score: 0.683 ± 0.35 for the first, -0.965 ± 1 for the second.

First: ILVREHFVSIKFLSR
Second: ILVSTIEGCLDYNLCFLAGL
The amyloid nucleation score of the first is lower: -1.21 ± 1.1 for the first, 1.67 ± 0.12 for the second.

ILWCFRSVMA and ILWGERRIDSRSWKIVARYF are within error of each other in amyloid nucleation score: -0.327 ± 0.28 for the first, -0.664 ± 1.1 for the second.

ILYGDVWLRFKRFWLSWMPA and ILYGWGRMMCRPLPQGYWMV are within error of each other in amyloid nucleation score: -0.055 ± 0.55 for the first, 0.449 ± 0.28 for the second.

First: IMCEGSTPDFIIYSCMLLVY
Second: IMFASKHCSVGVMLKIGRTF
The amyloid nucleation score of the first is lower: -1.41 ± 0.42 for the first, 0.209 ± 0.33 for the second.

IMGHYVYDVVR and IMSNGDRNAYYVKLHES are within error of each other in amyloid nucleation score: -0.352 ± 0.36 for the first, 0.123 ± 0.33 for the second.

INGCFDHPTSIETFSEEMWM and INHKQGCSTVWPVAKVCMLV are within error of each other in amyloid nucleation score: -0.533 ± 0.55 for the first, 0.201 ± 1 for the second.

INRKGRRI and INSASESKGKGIILSTNGDS are within error of each other in amyloid nucleation score: 0.007 ± 0.79 for the first, -0.717 ± 0.39 for the second.

INSSRSFVYDFNTWNFQDVR and INTCIWASLYLSMAHEYRI are within error of each other in amyloid nucleation score: -0.089 ± 0.79 for the first, -0.793 ± 0.62 for the second.

First: INWLKYLAFLILLDMFNSFG
Second: INYSFWRSHSSP
The amyloid nucleation score of the first is lower: 0.263 ± 0.64 for the first, 4.42 ± 0.099 for the second.

Compared with IPFIRMFVSFNNLQSISIPD, IPFQEWNSMFIKLSELTVES is lower in amyloid nucleation score: 5.534 ± 0.033 for the first, 3.97 ± 0.058 for the second.

Going from IPKHLSSSVYAYYDLRLVFV to IPKKSNLFLQMETMQLLFFD, the amyloid nucleation score rises from 0.08 ± 0.22 to 2.67 ± 0.17.

IPPSLCARKLRCYYVGAEG and IPRIRR are within error of each other in amyloid nucleation score: 0.249 ± 0.64 for the first, 0.622 ± 0.66 for the second.

IPVDT and IQARSYFVPTFSFLCTHSPT are within error of each other in amyloid nucleation score: -0.668 ± 1.1 for the first, 0.839 ± 0.48 for the second.

IQLDRSYSHNTSSLQGWHTM and IQVRRITG are within error of each other in amyloid nucleation score: 0.062 ± 0.74 for the first, 0.089 ± 0.29 for the second.

Going from IQYGEIGHIFCKVVISLNLE to IQYPLFSCTYEGFFGDRYMA, the amyloid nucleation score falls from 1.47 ± 0.2 to -0.495 ± 0.55.

IRAKFI and IRALDGHGFSSPWARFGPAG are within error of each other in amyloid nucleation score: 0.455 ± 0.39 for the first, 0.755 ± 0.4 for the second.

Compared with IRANGDKSVYM, IRCCAWFDLVSESRSRGTWT is higher in amyloid nucleation score: 2.21 ± 0.076 for the first, 5.43 ± 0.072 for the second.

First: IRKRCGINGMYRWIWVTWYL
Second: IRLFVRLNGHRWKRNW
The amyloid nucleation score of the first is lower: -1.12 ± 0.33 for the first, -0.003 ± 0.33 for the second.

Compared with IRMAISLFNFGFSNMFMLKE, IRQAWLYS is higher in amyloid nucleation score: -1.94 ± 1.1 for the first, 0.615 ± 0.13 for the second.

First: IRRTDREQ
Second: IRRVSAQVCINWSIEWKSTR
The amyloid nucleation score of the first is lower: 0.053 ± 0.24 for the first, 1.07 ± 0.33 for the second.

IRWMTHWKV gave an amyloid nucleation score of 0.834 ± 0.43.

For IGTVAPVDLTAYSRERLFRM, the amyloid nucleation score was “inactive”.
With IKKIRYPRFLVVLN the amyloid nucleation score was “inactive”.
In the case of IKLYCELCYFSNFWKIFTLR, the amyloid nucleation score is reported as “inactive”.
With ILICKILKTRMKVSRDMVMK the amyloid nucleation score was “inactive”.
For ILLVILLTRIVKRSFFYRGF, the amyloid nucleation score was “inactive”.
For INFLNWFNLFDGYMFSLSAY, the amyloid nucleation score was “inactive”.
For INNQGFIRPDNDSCYRFWIS, the amyloid nucleation score was “inactive”.
With INQFIFGTKRMSKNYVSMVR the amyloid nucleation score was “inactive”.
With IPEVQCIKFMSYSGCHIQAL the amyloid nucleation score was “inactive”.

— the supplement of paper PMC12042874
